Laboratory results reported in paper PMC12533970, “Highly accurate protein structure prediction-based virtual docking pipeline accelerating the identification of anti-schistosomal compounds”.

What was measured:
Assay in all cases: EMSA; EMSA: 0.5 pmol FAM-RNA (heated 70 C 5 min, cooled on ice) with 1 ug WT or 2 ug mutant protein in 10 uL Beyotime reaction buffer (composition, salt and pH not stated), 20 min at room temperature; competitor 200 pmol unlabeled RNA; 6% native PAGE in 1x TBE pH 8.3
Details in all cases: protein: recombinant; tags: His+SUMO, cleaved with ULP1; single strand
[1] = biological target: SmU2AF65 (Schistosoma mansoni, UniProt C4Q2F6 1-521)
[2] = biological target: SmU2AF65 Mutant 2 (Schistosoma mansoni, UniProt C4Q2F6 1-521, L255A;R270E;Q284R;V289A)
[3] = biological target: SmU2AF65 Mutant 1 (Schistosoma mansoni, UniProt C4Q2F6 1-521, L255A;R270A;Q284A;V289A)

UACAUAAAUUAAUAAGUAUUUUUACUUUUUUUUAUUUUCAAUUUCAACAG (ssRNA) [50-nt intron 3' region consensus RNA]: binds [1]; no binding [2]; binds [3].
